Measurements: the supplement of paper PMC10724198
± gives the standard deviation of the averaged measurements.

Tested on: Saccharomyces cerevisiae
Test: protein stability index of tFT-peptide fusion (C-terminal peptide) (PSI (0-1 scale)); higher = more stable (slower turnover)
Settings: genetic background: wild type; temperature: 30 C
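Also: PSI is a weighted mean of sequencing reads over stability bins, variants kept only with over 10 reads, mCherry proximal and sfGFP distal, peptide attached via GGGS linker.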

Sequence | protein stability index
PPSPSLLPPLPP | 0.684 ± 0.041
VPKRLLSFDQGG | 0.6801 ± 0.0032
SRSHSPLCPSFA | 0.604 ± 0.026
RWPPPPPELPPP | 0.655 ± 0.039
PPPAPPLILVLP | 0.539 ± 0.0037
PTPGGLIIVLGS | 0.6322 ± 0.0041
PIVRTQLGNSVQ | 0.696 ± 0.067
KVAFKTNQHLGR | 0.661 ± 0.03
PPPPPRLTPPRL | 0.722 ± 0.09
RFFPPPARPSPF | 0.732 ± 0.025
SKPPLPTRLPRP | 0.7056 ± 0.0032
ETEASKGSRNEE | 0.627 ± 0.065
RNHHPHHVPTSR | 0.667 ± 0.03
VVSSSMGCCFRG | 0.659 ± 0.076
LLLPSTPSPLLY | 0.609 ± 0.014
MREAQAFRCLYG | 0.636 ± 0.0019
PPPRVPPPVPPL | 0.722 ± 0.047
PSSPLLGPPPPD | 0.677 ± 0.01
CSLEREKLQEQQ | 0.689 ± 0.022
PPFAPAPALSAS | 0.758 ± 0.11
ELVGLAHVLELA | 0.655 ± 0.084
RTKMKERTCEEG | 0.697 ± 0.02
PPSTPPRPDSPP | 0.578 ± 0.084
LPAPSPAVPSPP | 0.668 ± 0.033
PLLPSLPLPPSP | 0.716 ± 0.011
TRFCDFTSSVTT | 0.711 ± 0.041

Sequence | protein stability index
IRQRSRGGLSSD | 0.684 ± 0.021
ASSFEGVWCTGC | 0.721 ± 0.0093
GGRGVVVVQGAG | 0.6978 ± 0.0013
AILGYFSLVEPP | 0.542 ± 0.013
GAPPPAFPISSP | 0.648 ± 0.05
CSAAVVQSSGSE | 0.67 ± 0.034
RSCFLSLFFFGF | 0.653 ± 0.036
VVAIGRVWGERA | 0.68 ± 0.059
HMHTSKTFSNGP | 0.738 ± 0.093
GYGRLVSSQSFR | 0.888 ± 0.16
VLSFLSSFFVRV | 0.65 ± 0.079
LCLFGGLVAFWC | 0.585 ± 0.027
PQYGTNQGRWTG | 0.705 ± 0.055
VNILRVYHVARA | 0.564 ± 0.097
PWPGSWALFCFI | 0.719 ± 0.15
GGSEEGGKAAKT | 0.652 ± 0.015
EPSAPYYCVTKG | 0.7279 ± 0.002
SNLLKQHKDLFL | 0.7162 ± 0.0027
PAPAPSPSFRDH | 0.708 ± 0.094
YVCLATLSSFSF | 0.644 ± 0.048
FGGNISIPRSCD | 0.7233 ± 0.004
LRCNAQSMICLT | 0.633 ± 0.081
HSPPRPPFHPRF | 0.70091 ± 0.0004
PPSSPPPASHRP | 0.691 ± 0.046
RCETHKDHESNE | 0.725 ± 0.014
SKLAVWVGERGF | 0.759 ± 0.02

Sequence | protein stability index
PSPLRRSTPPCL | 0.709 ± 0.13
YFLPESKIGRSG | 0.705 ± 0.023
DPEDPPRAREPQ | 0.673 ± 0.038
AHVYGCGGGGMT | 0.734 ± 0.055
RSGGDGCRALSV | 0.708 ± 0.064
CFYSFWQVTRFL | 0.477 ± 0.062
AGGGRRRLDGGR | 0.703 ± 0.0086
EGPVYKNIGTDV | 0.6823 ± 0.0013
GPPPRCKYLRAS | 0.6348 ± 0.00079
ERKNTTSEFTNL | 0.684 ± 0.0079
NKKIYRTKIKKL | 0.5917 ± 0.00069
GLGVVSVWSGGL | 0.703 ± 0.044
GGFESRVVGGVG | 0.526 ± 0.034
TSGNSTALKMGR | 0.741 ± 0.059
VEGGGYVVHSGG | 0.657 ± 0.066
SPPGPLPPRRPF | 0.725 ± 0.074
RKGVSLAILLGP | 0.67 ± 0.055
PLPPPPDSPPLP | 0.694 ± 0.013
VSWFVGFCLWFP | 0.5506 ± 0.0025
AGLLGVVGGRFG | 0.6993 ± 0.00076
VSRQHLPAVLHL | 0.661 ± 0.024
PAHPHPYHPSLH | 0.6265 ± 0.0042
THLPLPPPPPLL | 0.655 ± 0.022
GLSRYLTCNNLV | 0.674 ± 0.0075
GRKIIIRKNKIK | 0.613 ± 0.05
LEGNRGYKRNGK | 0.637 ± 0.084

Sequence | protein stability index
SPPPILPSSPSS | 0.698 ± 0.087
CRVAFGFMSRFV | 0.729 ± 0.067
TSPSPPPTPCRS | 0.702 ± 0.018
TPTSLPGPRVLS | 0.6596 ± 0.0054
RGEVWVEVALGV | 0.642 ± 0.021
GGNRRIKEKSRL | 0.785 ± 0.016
PARTPSPPAPSH | 0.657 ± 0.056
SVVFSQCLVNLG | 0.659 ± 0.062
EGKGKGRGEVKE | 0.6733 ± 0.0064
VPTSLGAYLRMV | 0.511 ± 0.014
PDPPSPSPFPAP | 0.724 ± 0.049
LAVILLVLPGND | 0.563 ± 0.011
ARVLVLMNGVCV | 0.592 ± 0.032
DSSLSRPGRLLP | 0.73 ± 0.012
GRIRGCSPFPLW | 0.63 ± 0.094
KKNAFIYKRRPR | 0.714 ± 0.04
QAYGFEDISFSI | 0.808 ± 0.076
PRPPPPARSPPS | 0.66 ± 0.06
DLIHLVVIVPMV | 0.554 ± 0.035
RRDIIMTKKTLH | 0.658 ± 0.069
ATHEEGRVRCGV | 0.709 ± 0.078
KYNKSRRGKIKT | 0.697 ± 0.062
APSINVQVYWSG | 0.649 ± 0.041
